B1: Megirivirus C (nucleic acid)
DNA: TTCCCGACCGGTCTGGCAAACCGGACGGTTATCCTGGTTAGATGTCTGATGGTTGCTGGAACGTGGTGGCTACTGCTGCCACCTTCTGGCTTCCTTTAATGGGCATCTAGCTGGGTTCTTTGCCACAATCCATCTTACTCTCTTACCCATTTTCTATTACCCAGACTTGTTGTTAACTGGTAAAGTTGACCTACTGGCTTCGTTTTGAGACTATTCTGGTGTTGGTGGACACTCTTTCCACAAGTAGATTGTATGGAGTTCATGCTCGTTTTGAACCGGGAATGGCACAACCCGTAGTAGGATCTTGCCTCTGCCATACTAATCTGCGCCTGTTGCTTTTAGACTATGGGCTGCTAAGGATGACATTGGAACCCCTTTTTGGATATTCCATGTCAAGTCAACTGTTTCATCTGGTGTACGCTGGAAATCCTTGTTCCGAGGTCTTGTCTGGAGGTGGTGCTGAAATATTGCAAGCCACAGGCAGTTCCTTGGACTTGGTGCCGCTATCAGATGCTACACCCTCTATGGGCAAATGTTGAACCTTAGTGGACGCGTGAGATGGGAATCCACGCCGGCCATAGACTGGCTGATAAGCTCGCGGCTGATCGAGTTGCAACAGTAATCAGTTGATTTGCCACT
B2: Hepacivirus P (nucleic acid, listed as Hepacivirus sp.)
DNA: ACATGGGGGGGGGCTGACAGTGAGTACACTGTGCCAAGCAGGTGCTACGCTATGCCTAGGTGCTGCTGTAGGCCAAGGACATGTCCCAGTCATCCCAGGTGAGGGGGGGGGTTCCCCTCACCGCTGCCACTGCCTGATAGGGTCCTGCCGGAGGGTCTCGGTGTCCGGCTGTAC
B3: Kagoshima-2-24-KoV (nucleic acid, listed as Kobuvirus sp.)
DNA: TATAGTTTGCCTGTTTCTCGCACCGTTACCGCTCGTTCGGGAATGTGAAACTGGCACCCCTCCTCTCCCCTACCACCCTTTCTCCTTCGCCCCCATTCATAATTTACAACGCCGCACACAGCGGCGGCCGCCAAGGGCTAGCCTGGCGGTTATAAAAGGAACCTGGGTCTTTCCCTCTTCAAGCCAAAAGGTAGGTTCCCTGTGTCCCTGAATGCTCGGTGAGGAATGCTGCACCGTAACGCTTTGTGAAGTGTTTGCAAGTTCTGGCCCGGCAAGCCTACAGAGTGCTGTGATCCGCTGCGGACGCCATCCTGGTAACAGGACCCCCAGTGTGCGCAACAGTATGTTCAGACTTCGGTTTGTTCACTTGCTTTCATGGACCATTGCGCGAAAGTGCGTGCGCCATATCCCTGTACTTCAGGTGTGCTTCTCTGGACCCTAGGAATGCTGCGAAGGTACCCCGTTTCGGCGGGATCTGATCGCAGGCTAATTGTCTATGGGTTCAGTTTCCTTTTTCTTTACTCCACAATTGACTGCTTAACTGACTCTGGATCTTGTGCTTCCACTGCTCTTTCTGCTCTCAAAACGGCTTCACTTACCAACTCTCACCTTTCGACCAACACCATTTACACACTAACTTTTTTCGACTCTTCTGACTCCTGGCTTGGTGAAGAC
B4: Harrier picornavirus 1 (nucleic acid)
DNA: GATGTGTGACGGTGTAATTACTTTCCGGATCCCACTTTCCTATTATAACTCTTTCATCCCAAGGTTAGGGAAAGAACCTGGCTCGGTACCACCAGACCCTCCGCCACGCTAGTGGACTCTCCGGAGATAACGGTACCCCCTTTGTAGTCACCTGTGCTGGTGAAGAACCACCTAGTATTGCTTGGGTGCGTGCCGCCTAGCTTCCATTTCTTCTGGAGCACTGTGCAATGAGGTTTCCCCACTTGGTAACAAGTGCCTCAGGTCCCGCAAGGATACTGTGGGGTGGTGTGACCGCAGGGAGCTGTCTCCACGGCTCCTCTAATGTTACGCCGCTATCCACAGGCCAGTGCGTGTCATCGATCCCGGATGACAGAGCTAGTATTGCGAACCCCCAAGTAAGAAAAGTGGCTAGTAACCTGATAGCTGGTGAAGAGGGTGGGTCAGTTGAGTAGATGCCCTAGAGGTACCCGAAAGGATCTGACTAGGGACCCGTGACTATACATTAGGTAAACCGGGTATAAAAACCATGAAAAACTGACCACTTTTCTTTTAACCTCTTCTTTCTTTTTATGTGTGTTAAGTGTTTTGAGTTTGGACTGTACCTTGCCCGCCTTTCTTGGATTTTCTCTATCGCTCTTCTTACACCTACTGTTATCAAGGCACTCTTTAGAGATA
B5: Miniopterus schreibersii picornavirus 1 (nucleic acid)
DNA: GTTGTCGACCCGTTGCTTGGTTTAAGCATGAGGTGGATTCCCCCGATTATGTCTACCCGTTACTATGGCGGGCGGTCGTTTCAGGGTGTTTCTACTGAGGACTGCACCAAGTCTTTATCTTTTATTCTCAGATCTCCGGCTGTTTGACGCTTGTAGGACAGCAGGACTATTTTCTCTTAATCTTTTTCTACCCACTAGGGTCCTATCCTAGTGGAGGGAGGGTGCCACCCCTTCTCTCTTTAGAGAGTGCGCCTGGCGGTCTTTCCGTCTCTGGAAAAAGGAGCACATGGCATGCTACAATTGGCACAAGAAAACAAGCTTTGCGGATTCTTTCTTTGTACTAGAGGAAGCTGTAGCGACCCTGTATGGCGAGCGGACTCCCCTCTCGGCGACGAGAGCCTCTCGGGCCAAAAGCCAAGTGTTAATAGCACCCATACAGGCGGCAGTACCCCACTGCCCTTTCTCAACATACAATGACTGATGAACCACTGTTGGTTTTTCTGACACCTTTGTAGTAGGATTCCAAGGAATGTCCTGAAGGTACCCTGTTAGCTTACGCGCAGGATCTGATCAGGAGTCTCTTTACAGTGCTGTACACTGTGCAAGGGATTAAAAATTGTTTGAGGAATCCCCGAGATAGTGGTCTATCTCTTCCTATTTTGTTTTACAGACACG
B6: Hubei picorna-like virus 2 (nucleic acid)
DNA: AGCAACTTCTTTCTGAAAACTAGCTAGAGTTCGACGATCTCTCTGGCTAATGACAAATAACCAATCAAAAAGTCAAATGTTCATGTATATATATATTTAGTAGTGACCTTTATTTAGAAAAACTTTAGATGATTTATCGTCAAGTTGCCCTTTGTGAAGCGATCAGCTTTTTATATCGTTTCATTTTTGTATACGTCTTAATTGACGTTGTAAGTACGTTTTGCATACCTCACATTGAGGATAGTATCGTTTCCTGACTAAGAAGTTAAACTAGTCTACCAATAGCAACCATATAGGATATAGCTTTGTTTTTAACAAGGTTTAATCTGATCTTATGCTCTTGCTTACGGTGTTTTATGTATAGAAAAGTTTTTATAAAAACTACATAATTGTCAAAAGAAAAAGCGTTACGTACTGACGCATTTATGTTCACAGTGTGACACAAACCTTCTATATTTTGATTGTAAAATAGGCTTTGCCTGACCATTTATCAAATACAAACTGTTTCAAACGCCTCTCCGAGCCATATTGGCCGACGCGAATCGACATAACAGGGTGAGTTTACAGCTGCAGTTGCAGCCGAGGATCCACTTATTTGAGAGAGAATTACTCTTAACGAAATTTTGAAGTCACTTCTACACAGTTAAGTCTGAGTAGGCGTTATCCAAACGTAAA
B7: Linda virus (nucleic acid)
DNA: GTATAGCAGCAGTAGCTCAAGGCTGCTATACGATTGGACATACCAAATTCCAATTGGTGTTAGGGACCACCTAGGTGAAGGCCGACGACAGGTAGCCATTCCTGTTAGTAGGACGAACCGTTATGGTGGACTGGTTGCTCAGGTGAGCAGGCTGCAATGCGTAAGTGGTGAGTACACCACAGCCGTCAAAGGTGCCACTGGTAAGGATCACCCACTGGCGATGCCTTGTGGACGGGGGCGTGCCCAACGCAATGTTAGCGGTGGCGGGGGCTGCCATCGTGAAAGCTAGGTCTTGATGGACCTTGTTGCCTGTACAGTCTGATAGGATGCCGGCGGATGCCCTGTGACAGCCAGTATAAAGAATATCCGTTGTGATTGCAC
B8: Kunsagivirus 1 (nucleic acid, listed as Kunsagivirus sp.)
DNA: TTTCAAATCGGACTCCGGTAGTTATACCGGAGCCCGGTTTGGACGCTTGGGCCGCGTTAACAGCCCCCCACCCCTTTCCCACTGACTGATTTCTCGGATTGGACTCATTTGCATTGCTAACTCTGATTCTGGATTTCCCCGTTTATGTCGTCGCGGTCGGAAGTGCACGTACTTCGACGTTGATCTGATGGCGTTTGTTTCCAGGGGGGAGGTGGCGGCAGAAACGCCCCCGCCGTAAACTTCGGCGGGCCACGCCTGTCAAGCCACTCCCTGGGGCCGAGCGCCTGAGGTGATACAGAGAGATAAGCACACTGGGCGCTGACAACGCCCGGGACCTCAGTGAGAAGAGCAGTAGGGCCGTGTTTATGGGACTCCATTGGATATCCCCCGCTTGTCGGAACTCACGGCTACTCCGGGTTGGGAAGCCCGCGACTGGTACTGTACTGGGTGATAGCCTGGTGCCTTCCCTCTCACTGTTGTATGAAGGCTGAAAACCCCCT
B9: Mumps virus (nucleic acid, listed as Mumps orthorubulavirus)
DNA: ACCAAGGGGAAAATGAAGATGGGATGTTGGTAGAACAAATAGTGTAAGAAACAGTAAGCCCGGAAGTGGTGTTTTGCGATTTCGAGGCCGGGCTCGATCCTCACCTTTCATTGTCGATAGGGGACATTTTGACACTACCTGGAAA
B10: Mouse Mosavirus (nucleic acid, listed as Mosavirus sp.)
DNA: GAAGTTGATCATGAACTTGGTTATTGGTGGAACGCACATGAACTCCCAACAATGATCTTGAAGACACAGCGTGGTAACAATTACCATGCCCTTGTGGCTGCCCAAGACATTGATGGCTATTGGGTGATTTATGATGAC
B11: Jingmen picorna-like virus (nucleic acid)
DNA: TGTGTTTTTGTCAAGATAATTGTTCTGTGATTAACAGTGATTGTGGTTCGTGTAATGCGACGCAGTCAAATGCTAGTTTTGATGAAGTGTATGAGAGAGTGGAAAACTTATCTCATAAGAAGATTGAAGAGTGTGTAGATCAGGCTATTGATCGAGCTTCTAAGCTTCGTGATTACAAGCTTAATGTTCACAATGGCTCCCGACGGGAATCATCTGATCCTCTCTTTATTTCGCCCCATTCGTTGTTATCGCTTGGGGTATCTAAGTTTGTTGCGTTTGAGCAGCATCACAGTTTCGCTTCAGTTGAGTCTCTGAAGTTGCTTGCTCTGTCT

This series deals with HEK293 cells. Type of series: cell-based, human. The conditions noted are these: luminescence from secreted Gluc in supernatant 24 hours after transfection of HEK293 cells; circular RNA encoding Gluc with the named IRES (UTR truncated to 675 nt).
In the case of B1, the Expression amounted to 1.24E+05.
The figure for B2 is 6.04E+05.
The figure for B3 is 9.30E+07; for B4 it is 1.47E+05.
Molecule B5 registered an Expression of 6.05E+06.
The figure for B6 is 1.95E+05.
The figure for B7 is 7.37E+05; for B8 it is 4.15E+05; for B9 it is 1.47E+05.
Molecule B10 registered an Expression of 9.00E+04.
The figure for B11 is 9.32E+04.

These data come from patent US20230226096A1 (Orna Therapeutics, Inc., priority 2020, published 2023).
